Assay results taken from patent US20240400654A1.
Changes are numbered by the printed parent chain. In names and notes the source's numbering stands. Several values for one entry are separate records, joined by “and”; a condition that tells them apart may be missing. Identical values can stand only once.

B1: KB001 parental mouse Fab FASEBA variant VH S65T (Fab, V domains shown)
VH: EVQLKQSGPGLVAPSQSLSITCTVSGFSLSIYSVHWVRQPPGKGLEWLGMIWGGGSSDYNSALKTRLSISKDNSKSQVFLKMNSLQTDDTAMYYCARNGNFYAMDYWGQGTSVTVSS
VL: QIVLTQSPAIMSASLGERVTMTCTASSSVSSSFLHWYQQKPGSSPQLWIYSTSNLASGVPARFSGSGSGTSYSLTISSMEAEDAATYYCHQYHHSPYIYTFGGGTKLEIK
B2: KB001 parental mouse Fab FASEBA variant VH A103K (Fab, V domains shown)
VH: B1 VH with T65S, A103K
VL: B1 VL
B3: KB001 parental mouse Fab FASEBA variant VH N100C (Fab, V domains shown)
VH: B1 VH with T65S, N100C
VL: B1 VL
B4: KB001 parental mouse Fab FASEBA variant VH G99F (Fab, V domains shown)
VH: B1 VH with T65S, G99F
VL: B1 VL
B5: KB001 parental mouse Fab FASEBA variant VH M104L (Fab, V domains shown)
VH: B1 VH with T65S, M104L
VL: B1 VL
B6: KB001 parental mouse Fab FASEBA variant VH Y106Q (Fab, V domains shown)
VH: B1 VH with T65S, Y106Q
VL: B1 VL
B7: KB001 parental mouse Fab FASEBA variant VH F101S (Fab, V domains shown)
VH: B1 VH with T65S, F101S
VL: B1 VL
B8: KB001 parental mouse Fab FASEBA variant VH A103V (Fab, V domains shown)
VH: B1 VH with T65S, A103V
VL: B1 VL
B9: KB001 parental mouse Fab FASEBA variant VH Y106H (Fab, V domains shown)
VH: B1 VH with T65S, Y106H
VL: B1 VL
B10: KB001 parental mouse Fab FASEBA variant VH G99N (Fab, V domains shown)
VH: B1 VH with T65S, G99N
VL: B1 VL
B11: KB001 parental mouse Fab FASEBA variant VH N100P (Fab, V domains shown)
VH: B1 VH with T65S, N100P
VL: B1 VL
B12: KB001 parental mouse Fab FASEBA variant VH N100A (Fab, V domains shown)
VH: B1 VH with T65S, N100A
VL: B1 VL
B13: KB001 parental mouse Fab FASEBA variant VH G99C (Fab, V domains shown)
VH: B1 VH with T65S, G99C
VL: B1 VL
B14: KB001 parental mouse Fab FASEBA variant VH N100G (Fab, V domains shown)
VH: B1 VH with T65S, N100G
VL: B1 VL
B15: KB001 parental mouse Fab FASEBA variant VH F101L (Fab, V domains shown)
VH: B1 VH with T65S, F101L
VL: B1 VL
B16: KB001 parental mouse Fab FASEBA variant VH A103M (Fab, V domains shown)
VH: B1 VH with T65S, A103M
VL: B1 VL
B17: KB001 parental mouse Fab FASEBA variant VH N100F (Fab, V domains shown)
VH: B1 VH with T65S, N100F
VL: B1 VL
B18: KB001 parental mouse Fab FASEBA variant VH M104V (Fab, V domains shown)
VH: B1 VH with T65S, M104V
VL: B1 VL
B19: KB001 parental mouse Fab FASEBA variant VH N100T (Fab, V domains shown)
VH: B1 VH with T65S, N100T
VL: B1 VL
B20: KB001 parental mouse Fab FASEBA variant VH F101M (Fab, V domains shown)
VH: B1 VH with T65S, F101M
VL: B1 VL
B21: KB001 parental mouse Fab FASEBA variant VH N100Y (Fab, V domains shown)
VH: B1 VH with T65S, N100Y
VL: B1 VL
B22: KB001 parental mouse Fab FASEBA variant VH N100I (Fab, V domains shown)
VH: B1 VH with T65S, N100I
VL: B1 VL
B23: KB001 parental mouse Fab FASEBA variant VH F101W (Fab, V domains shown)
VH: B1 VH with T65S, F101W
VL: B1 VL
B24: KB001 parental mouse Fab FASEBA variant VH G99A (Fab, V domains shown)
VH: B1 VH with T65S, G99A
VL: B1 VL
B25: KB001 parental mouse Fab FASEBA variant VH N100L (Fab, V domains shown)
VH: B1 VH with T65S, N100L
VL: B1 VL
B26: KB001 parental mouse Fab FASEBA variant VH N100K (Fab, V domains shown)
VH: B1 VH with T65S, N100K
VL: B1 VL
B27: KB001 parental mouse Fab FASEBA variant VH Y106D (Fab, V domains shown)
VH: B1 VH with T65S, Y106D
VL: B1 VL
B28: KB001 parental mouse Fab FASEBA variant VH A103C (Fab, V domains shown)
VH: B1 VH with T65S, A103C
VL: B1 VL
B29: KB001 parental mouse Fab FASEBA variant VH Y106W (Fab, V domains shown)
VH: B1 VH with T65S, Y106W
VL: B1 VL
B30: KB001 parental mouse Fab FASEBA variant VH N100S (Fab, V domains shown)
VH: B1 VH with T65S, N100S
VL: B1 VL
B31: KB001 parental mouse Fab FASEBA variant VH A103L (Fab, V domains shown)
VH: B1 VH with T65S, A103L
VL: B1 VL
B32: KB001 parental mouse Fab FASEBA variant VH G99Y (Fab, V domains shown)
VH: B1 VH with T65S, G99Y
VL: B1 VL
B33: KB001 parental mouse Fab FASEBA variant VH A103I (Fab, V domains shown)
VH: B1 VH with T65S, A103I
VL: B1 VL
B34: KB001 parental mouse Fab FASEBA variant VH G99S (Fab, V domains shown)
VH: B1 VH with T65S, G99S
VL: B1 VL
B35: KB001 parental mouse Fab FASEBA variant VH Y106K (Fab, V domains shown)
VH: B1 VH with T65S, Y106K
VL: B1 VL
B36: KB001 parental mouse Fab FASEBA variant VH A103G (Fab, V domains shown)
VH: B1 VH with T65S, A103G
VL: B1 VL
B37: KB001 parental mouse Fab FASEBA variant VH N100R (Fab, V domains shown)
VH: B1 VH with T65S, N100R
VL: B1 VL
B38: KB001 parental mouse Fab FASEBA variant VH N100E (Fab, V domains shown)
VH: B1 VH with T65S, N100E
VL: B1 VL
B39: KB001 parental mouse Fab FASEBA variant VH Y106I (Fab, V domains shown)
VH: B1 VH with T65S, Y106I
VL: B1 VL
B40: KB001 parental mouse Fab FASEBA variant VH N100Q (Fab, V domains shown)
VH: B1 VH with T65S, N100Q
VL: B1 VL

What follows are binders tested against HRgpA-6H (Porphyromonas gingivalis) (UniProt P28784) (assay: ELISA, FASEBA screening, coated HRgpA-6H 0.0625 ug/ml).
Chain of UniProt P28784 (P28784 228-860): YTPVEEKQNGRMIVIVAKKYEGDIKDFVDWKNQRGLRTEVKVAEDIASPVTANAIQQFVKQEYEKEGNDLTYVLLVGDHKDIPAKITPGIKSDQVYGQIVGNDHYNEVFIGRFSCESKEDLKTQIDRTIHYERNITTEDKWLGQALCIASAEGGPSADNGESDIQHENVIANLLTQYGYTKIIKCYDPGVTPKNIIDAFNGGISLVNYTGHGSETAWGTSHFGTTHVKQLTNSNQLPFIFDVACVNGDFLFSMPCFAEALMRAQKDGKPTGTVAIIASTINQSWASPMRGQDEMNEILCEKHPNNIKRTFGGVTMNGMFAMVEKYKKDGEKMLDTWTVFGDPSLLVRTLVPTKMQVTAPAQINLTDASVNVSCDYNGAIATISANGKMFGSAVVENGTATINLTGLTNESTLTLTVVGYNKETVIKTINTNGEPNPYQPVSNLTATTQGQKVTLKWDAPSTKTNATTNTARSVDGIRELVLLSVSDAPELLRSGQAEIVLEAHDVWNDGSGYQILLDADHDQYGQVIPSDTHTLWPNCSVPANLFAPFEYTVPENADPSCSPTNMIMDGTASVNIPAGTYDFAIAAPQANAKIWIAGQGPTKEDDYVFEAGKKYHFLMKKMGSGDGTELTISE
B1 was tested, and the OD450 nm was 0.759. B2 showed an OD450 nm of 0.723. Binder B3 has an OD450 nm of 0.688. For B4, the OD450 nm was 0.771. B5 was tested, and the OD450 nm was 0.786. Work on B6 yielded an OD450 nm of 0.768. For B7, the OD450 nm was 0.678 and 0.725. In the case of B8, the OD450 nm is reported as 0.849 and 0.807. Binder B9 has an OD450 nm of 0.722. With B10 the OD450 nm was 0.639 and 0.698. B11 gave an OD450 nm of 0.757. Binder B12 has an OD450 nm of 0.809. With B13 the OD450 nm was 0.776. B14 was tested, and the OD450 nm was 0.769 and 0.814. Binder B15 has an OD450 nm of 0.681. Work on B16 yielded an OD450 nm of 0.811. B17 gave an OD450 nm of 0.779. With B18 the OD450 nm was 0.654. With B19 the OD450 nm was 0.756 and 0.783. For B20, the OD450 nm was 0.755. For B21, the OD450 nm was 0.757 and 0.784 and 0.699. B22 was tested, and the OD450 nm was 0.796 and 0.833. B23 was tested, and the OD450 nm was 0.825 and 0.828 and 0.802. Work on B24 yielded an OD450 nm of 0.74. In the case of B25, the OD450 nm is reported as 0.817 and 0.736 and 0.789. With B26 the OD450 nm was 0.801 and 0.791. For B27, the OD450 nm was 0.675. B28 showed an OD450 nm of 0.77. For B29, the OD450 nm was 0.733 and 0.748. B30 was tested, and the OD450 nm was 0.799 and 0.844 and 0.805. Work on B31 yielded an OD450 nm of 0.783. B32 showed an OD450 nm of 0.769. With B33 the OD450 nm was 0.695 and 0.693. With B34 the OD450 nm was 0.769 and 0.739 and 0.77. With B35 the OD450 nm was 0.767. In the case of B36, the OD450 nm is reported as 0.815 and 0.804 and 0.755. Binder B37 has an OD450 nm of 0.788. In the case of B38, the OD450 nm is reported as 0.823. For B39, the OD450 nm was 0.73 and 0.728 and 0.764. B40 was tested, and the OD450 nm was 0.846.

These binders were tested against HRgpA-6H (Porphyromonas gingivalis) (UniProt P28784) (assay: ELISA, FASEBA screening, coated HRgpA-6H; variant OD over parental WT Fab OD).
For B1, the Ratio OD(Variant)/OD(WT) was 0.918. With B2 the Ratio OD(Variant)/OD(WT) was 0.839. Work on B3 yielded a Ratio OD(Variant)/OD(WT) of 0.812. Work on B4 yielded a Ratio OD(Variant)/OD(WT) of 0.967. In the case of B5, the Ratio OD(Variant)/OD(WT) is reported as 0.904. With B6 the Ratio OD(Variant)/OD(WT) was 0.999. B7 was tested, and the Ratio OD(Variant)/OD(WT) was 0.8 and 0.856. With B8 the Ratio OD(Variant)/OD(WT) was 0.985 and 0.936. B9 showed a Ratio OD(Variant)/OD(WT) of 0.939. B10 was tested, and the Ratio OD(Variant)/OD(WT) was 0.802 and 0.876. For B11, the Ratio OD(Variant)/OD(WT) was 0.894. With B12 the Ratio OD(Variant)/OD(WT) was 0.955. In the case of B13, the Ratio OD(Variant)/OD(WT) is reported as 0.974. In the case of B14, the Ratio OD(Variant)/OD(WT) is reported as 0.908 and 0.961. In the case of B15, the Ratio OD(Variant)/OD(WT) is reported as 0.804. For B16, the Ratio OD(Variant)/OD(WT) was 0.941. With B17 the Ratio OD(Variant)/OD(WT) was 0.92. Work on B18 yielded a Ratio OD(Variant)/OD(WT) of 0.85. For B19, the Ratio OD(Variant)/OD(WT) was 0.893 and 0.924. In the case of B20, the Ratio OD(Variant)/OD(WT) is reported as 0.891. In the case of B21, the Ratio OD(Variant)/OD(WT) is reported as 0.894 and 0.926 and 0.825. For B22, the Ratio OD(Variant)/OD(WT) was 0.94 and 0.983. With B23 the Ratio OD(Variant)/OD(WT) was 0.974 and 0.978 and 0.947. In the case of B24, the Ratio OD(Variant)/OD(WT) is reported as 0.928. In the case of B25, the Ratio OD(Variant)/OD(WT) is reported as 0.965 and 0.869 and 0.932. In the case of B26, the Ratio OD(Variant)/OD(WT) is reported as 0.946 and 0.934. Work on B27 yielded a Ratio OD(Variant)/OD(WT) of 0.878. B28 gave a Ratio OD(Variant)/OD(WT) of 0.893. With B29 the Ratio OD(Variant)/OD(WT) was 0.953 and 0.973. With B30 the Ratio OD(Variant)/OD(WT) was 0.943 and 0.996 and 0.95. For B31, the Ratio OD(Variant)/OD(WT) was 0.908. For B32, the Ratio OD(Variant)/OD(WT) was 0.965. With B33 the Ratio OD(Variant)/OD(WT) was 0.806 and 0.804. For B34, the Ratio OD(Variant)/OD(WT) was 0.965 and 0.927 and 0.966. B35 gave a Ratio OD(Variant)/OD(WT) of 0.997. With B36 the Ratio OD(Variant)/OD(WT) was 0.945 and 0.933 and 0.876. B37 gave a Ratio OD(Variant)/OD(WT) of 0.93. In the case of B38, the Ratio OD(Variant)/OD(WT) is reported as 0.972. B39 was tested, and the Ratio OD(Variant)/OD(WT) was 0.949 and 0.947 and 0.993. Work on B40 yielded a Ratio OD(Variant)/OD(WT) of 0.999.
